The values below come from patent publication US20170355733A1.

The target of experiment [1] is aTNF-Fab (Fab fragment of anti-human TNFα monoclonal IgG, generic name Infliximab, product name Remicade). Nature of the experiment: SPR Biacore 3000, aTNF-Fab amine-coupled on CM5, peptide flowed, 25 °C, pH 7.4, 1:1 fit.
Experiment [2] has the same target. Nature of the experiment: affinity chromatography on aTNF-Fab-immobilized column, linear pH gradient 5.5 to 2.5, pH at elution peak top.
For experiment [3] the target is unchanged. Nature of the experiment: affinity constant KA for aTNF-Fab, summing up Table 2 (method not shown in the excerpt).

B1: GB1#-Cont.1d (designed binder)
chain: GPLGSTTYKLILNGKTLTGYTTAIAADAATAEIVLKQFANDNGIDGEWTYDDATKTFTVTE
In experiment [1], B1 yielded a Ka of 2.45e+06 M⁻¹, an off-rate (koff) of 0.017 s⁻¹ and an on-rate (kon) of 41700 M⁻¹ s⁻¹. Further, the Dissociation pH in experiment [2] was 2.6 pH.

B2: GB1#-D36V.1d (designed binder)
chain: GPLGSTTYKLILNGKTLTGYTTAIAADAATAEIVLKQFANVNGIDGEWTYDDATKTFTVTE
As for B2, in experiment [1], the Ka is 510000 M⁻¹, the koff turned out to be 0.064 s⁻¹ and the kon was determined as 32800 M⁻¹ s⁻¹. In experiment [3], this molecule had a Ka greater than 500000 M⁻¹. This molecule showed a Dissociation pH in experiment [2] of 3.4 pH.

B3: GB1#-T17A.1d (designed binder)
chain: GPLGSTTYKLILNGKTLTGYTAAIAADAATAEIVLKQFANDNGIDGEWTYDDATKTFTVTE
Consider B3, for which, in experiment [1], the Ka is 880000 M⁻¹, the koff turned out to be 0.0285 s⁻¹ and the on-rate constant (kon) was 25000 M⁻¹ s⁻¹. Also, the Ka in experiment [3] is greater than 500000 M⁻¹. In experiment [2], the Dissociation pH amounted to 2.85 pH.

B4: GB1#-T17V.1d (designed binder)
chain: GPLGSTTYKLILNGKTLTGYTVAIAADAATAEIVLKQFANDNGIDGEWTYDDATKTFTVTE
In experiment [1], B4 displayed a Ka of 570000 M⁻¹, a koff of 0.0335 s⁻¹ and a kon of 19100 M⁻¹ s⁻¹. Also, in experiment [3], the Ka was greater than 500000 M⁻¹. Also, the Dissociation pH in experiment [2] was determined as 3 pH.
